Measured values: the supplement of paper PMC10065799, “High-throughput profiling of sequence recognition by tyrosine kinases and SH2 domains using bacterial peptide display” (eLife, 2023)

Test system: AncSZ
Assay: phosphorylation enrichment, bacterial display (enrichment ratio); higher = better substrate or ligand; peptides without Tyr show the background
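Also: 11-residue human phosphosite peptides and single-mutation variants displayed on the E. coli surface, counted by deep sequencing, each peptide's frequency after selection divided by its frequency in the unselected input library; frequency after pTyr selection over input frequency; kinase dosed for 20-30% of maximal phosphorylation in three min.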

Sequence	phosphorylation enrichment
LDLPGYCPLRE [CCDC116_Y291]	1.55
CDDGKYVFVVT [RPS6KA3_Y488_Y483C_YF]	1.23
RHFVFYFSFLL [PTEN_Y177_R173H_YF]	1.26
ATATDYHTTSH [SLC4A1_Y46]	0.473
SMAKYYASEIA [ACADSB_Y373]	0.601
SSSAIYDNPDL [DCP1B_Y191_N195D]	1.29
GARGRYIMGGP [TNK1_Y277_V278I]	0.433
VNQSGYTLIRK [ATP6V0A2_Y688_R685Q]	0.572
MPLDQYSPSFP [FGFR1_Y776]	0.857
EDSEYYKAFEE [CASQ2_Y179]	1.37
PSQRRYVFFFS [PTEN_Y174_YF]	1.54
HFNLTYRILSF [MMP23B_Y95]	1.6
LEIETCRRLLD [KRT12_Y429_Y429C]	1.2
HYEDGYPGGSD [CTNND1_Y221]	1.75
LLREWYLPDPF [SIX3_Y225_Q227P_YF]	2.26
QEGPEYWDGNT [HLA-B_Y83_R86G]	1.93
DLAGRYYALKS [CKB_Y173]	0.572

Sequence	phosphorylation enrichment
PFRFIYMAVQH [PTPN11_Y515_Q510P_YF]	1.09
KDAGDYKFKAK [LRIT3_Y326_C328Y_YF]	0.406
RGGWAYVLHPT [TRMT61A_Y67_V66A]	1.34
NFYEYYVDDPP [GCHFR_Y48]	2.53
LNWIFYKDQTG [RS1_Y166_YF]	0.977
SASQEYHIVKK [PDZD2_Y557]	0.779
CRIELYRIVES [IGFBP1_Y181_V183I]	1.21
THQNSYQPGRK [CEFIP_Y210]	0.561
LVLIKYLPEWT [PSEN1_Y240_F237L]	1.19
KALKQYRAGPS [DDX27_Y763]	0.473
FASTGYGIAIQ [GRIN2B_Y762]	0.655
CSSGGYEPRGR [FUS_Y239_R234C]	0.801
RHPYFYAPELL [ALB_Y174]	1.38
LFEDRYLLGTS [ASS1_Y87_YF]	2.21
QTLTDYDIRFY [CSNK2A1_Y131]	1.27
SMEGLYSSTQD [CLIC5_Y111]	1.57

Biological target: EPHB1 (UniProt P54762)
Sequence (P54762 whole entry, looked up): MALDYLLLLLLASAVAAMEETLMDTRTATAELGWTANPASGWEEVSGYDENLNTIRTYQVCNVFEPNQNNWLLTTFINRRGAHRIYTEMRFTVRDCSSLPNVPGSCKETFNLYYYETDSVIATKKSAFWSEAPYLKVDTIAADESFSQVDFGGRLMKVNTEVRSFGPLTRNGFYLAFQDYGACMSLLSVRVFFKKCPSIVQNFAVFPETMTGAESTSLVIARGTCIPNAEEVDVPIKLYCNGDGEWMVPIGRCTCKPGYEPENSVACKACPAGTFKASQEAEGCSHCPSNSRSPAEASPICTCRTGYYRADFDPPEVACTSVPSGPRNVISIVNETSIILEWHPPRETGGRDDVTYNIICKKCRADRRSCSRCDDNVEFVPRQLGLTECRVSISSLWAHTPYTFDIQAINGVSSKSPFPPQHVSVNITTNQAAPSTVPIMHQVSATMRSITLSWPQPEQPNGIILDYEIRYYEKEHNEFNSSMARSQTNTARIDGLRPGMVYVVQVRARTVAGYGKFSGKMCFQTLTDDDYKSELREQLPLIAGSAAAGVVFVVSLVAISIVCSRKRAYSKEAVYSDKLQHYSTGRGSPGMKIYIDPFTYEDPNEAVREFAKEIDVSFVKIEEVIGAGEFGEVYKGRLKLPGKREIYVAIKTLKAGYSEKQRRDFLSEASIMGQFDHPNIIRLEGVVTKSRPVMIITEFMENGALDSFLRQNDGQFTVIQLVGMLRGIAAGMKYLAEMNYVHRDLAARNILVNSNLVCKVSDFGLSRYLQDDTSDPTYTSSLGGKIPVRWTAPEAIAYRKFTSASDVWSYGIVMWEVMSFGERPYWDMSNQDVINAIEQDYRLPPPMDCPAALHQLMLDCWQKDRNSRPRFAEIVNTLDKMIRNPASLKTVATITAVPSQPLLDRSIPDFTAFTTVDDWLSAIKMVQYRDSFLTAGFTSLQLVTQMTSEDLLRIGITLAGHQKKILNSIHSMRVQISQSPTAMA
Assay: as above

Sequence	phosphorylation enrichment
LDLPGYCPLRE [CCDC116_Y291]	1.09
CDDGKYVFVVT [RPS6KA3_Y488_Y483C_YF]	0.604
RHFVFYFSFLL [PTEN_Y177_R173H_YF]	0.547
ATATDYHTTSH [SLC4A1_Y46]	0.31
SMAKYYASEIA [ACADSB_Y373]	0.459
SSSAIYDNPDL [DCP1B_Y191_N195D]	7.52
GARGRYIMGGP [TNK1_Y277_V278I]	0.39
VNQSGYTLIRK [ATP6V0A2_Y688_R685Q]	0.42
MPLDQYSPSFP [FGFR1_Y776]	0.399
EDSEYYKAFEE [CASQ2_Y179]	0.526
PSQRRYVFFFS [PTEN_Y174_YF]	0.809
HFNLTYRILSF [MMP23B_Y95]	0.826
LEIETCRRLLD [KRT12_Y429_Y429C]	0.939
HYEDGYPGGSD [CTNND1_Y221]	0.796
LLREWYLPDPF [SIX3_Y225_Q227P_YF]	1.22
QEGPEYWDGNT [HLA-B_Y83_R86G]	0.762
DLAGRYYALKS [CKB_Y173]	0.406

Sequence	phosphorylation enrichment
PFRFIYMAVQH [PTPN11_Y515_Q510P_YF]	0.741
KDAGDYKFKAK [LRIT3_Y326_C328Y_YF]	0.345
RGGWAYVLHPT [TRMT61A_Y67_V66A]	0.711
NFYEYYVDDPP [GCHFR_Y48]	5.35
LNWIFYKDQTG [RS1_Y166_YF]	0.611
SASQEYHIVKK [PDZD2_Y557]	0.512
CRIELYRIVES [IGFBP1_Y181_V183I]	1.82
THQNSYQPGRK [CEFIP_Y210]	0.233
LVLIKYLPEWT [PSEN1_Y240_F237L]	0.827
KALKQYRAGPS [DDX27_Y763]	0.34
FASTGYGIAIQ [GRIN2B_Y762]	0.575
CSSGGYEPRGR [FUS_Y239_R234C]	0.411
RHPYFYAPELL [ALB_Y174]	0.564
LFEDRYLLGTS [ASS1_Y87_YF]	2.81
QTLTDYDIRFY [CSNK2A1_Y131]	0.825
SMEGLYSSTQD [CLIC5_Y111]	1.94

Biological target: EPHB2 (UniProt P29323)
Sequence (P29323 whole entry, looked up): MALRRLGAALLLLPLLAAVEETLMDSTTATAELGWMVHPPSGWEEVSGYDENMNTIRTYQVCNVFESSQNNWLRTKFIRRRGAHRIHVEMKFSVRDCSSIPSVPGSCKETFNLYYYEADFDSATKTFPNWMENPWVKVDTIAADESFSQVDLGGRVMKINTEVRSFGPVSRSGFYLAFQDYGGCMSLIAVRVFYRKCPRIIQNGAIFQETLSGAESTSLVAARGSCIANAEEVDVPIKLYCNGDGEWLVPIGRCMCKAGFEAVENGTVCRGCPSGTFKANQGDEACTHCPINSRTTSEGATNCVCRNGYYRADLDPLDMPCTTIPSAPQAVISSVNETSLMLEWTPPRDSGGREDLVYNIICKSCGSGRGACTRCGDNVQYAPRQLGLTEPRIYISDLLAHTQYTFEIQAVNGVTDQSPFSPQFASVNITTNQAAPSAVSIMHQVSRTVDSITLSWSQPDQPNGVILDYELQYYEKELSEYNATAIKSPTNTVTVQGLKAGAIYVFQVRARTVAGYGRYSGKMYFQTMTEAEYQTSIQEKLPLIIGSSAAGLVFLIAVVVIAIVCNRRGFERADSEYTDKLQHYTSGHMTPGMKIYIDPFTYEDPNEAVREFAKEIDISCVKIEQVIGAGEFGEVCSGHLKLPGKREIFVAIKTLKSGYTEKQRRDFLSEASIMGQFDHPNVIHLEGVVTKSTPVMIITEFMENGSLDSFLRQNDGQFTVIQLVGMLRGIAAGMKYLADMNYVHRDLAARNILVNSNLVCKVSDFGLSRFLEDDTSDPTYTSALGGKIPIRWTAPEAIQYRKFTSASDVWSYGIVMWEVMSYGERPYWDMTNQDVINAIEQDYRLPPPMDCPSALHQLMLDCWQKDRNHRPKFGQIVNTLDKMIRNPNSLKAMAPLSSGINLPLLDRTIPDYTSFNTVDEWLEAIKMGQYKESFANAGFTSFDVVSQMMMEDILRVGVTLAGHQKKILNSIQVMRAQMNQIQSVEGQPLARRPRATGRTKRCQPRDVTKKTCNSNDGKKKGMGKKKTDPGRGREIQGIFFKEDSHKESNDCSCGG
Assay: as above

Sequence	phosphorylation enrichment
LDLPGYCPLRE [CCDC116_Y291]	0.668
CDDGKYVFVVT [RPS6KA3_Y488_Y483C_YF]	0.719
RHFVFYFSFLL [PTEN_Y177_R173H_YF]	1.44
ATATDYHTTSH [SLC4A1_Y46]	0.348
SMAKYYASEIA [ACADSB_Y373]	0.433
SSSAIYDNPDL [DCP1B_Y191_N195D]	10.9
GARGRYIMGGP [TNK1_Y277_V278I]	0.462
VNQSGYTLIRK [ATP6V0A2_Y688_R685Q]	0.478
MPLDQYSPSFP [FGFR1_Y776]	0.617
EDSEYYKAFEE [CASQ2_Y179]	0.489
PSQRRYVFFFS [PTEN_Y174_YF]	0.655
HFNLTYRILSF [MMP23B_Y95]	0.615
LEIETCRRLLD [KRT12_Y429_Y429C]	0.913
HYEDGYPGGSD [CTNND1_Y221]	0.762
LLREWYLPDPF [SIX3_Y225_Q227P_YF]	0.711
QEGPEYWDGNT [HLA-B_Y83_R86G]	0.959
DLAGRYYALKS [CKB_Y173]	0.419

Sequence	phosphorylation enrichment
PFRFIYMAVQH [PTPN11_Y515_Q510P_YF]	0.737
KDAGDYKFKAK [LRIT3_Y326_C328Y_YF]	0.259
RGGWAYVLHPT [TRMT61A_Y67_V66A]	0.816
NFYEYYVDDPP [GCHFR_Y48]	6.26
LNWIFYKDQTG [RS1_Y166_YF]	0.306
SASQEYHIVKK [PDZD2_Y557]	0.527
CRIELYRIVES [IGFBP1_Y181_V183I]	0.616
THQNSYQPGRK [CEFIP_Y210]	0.366
LVLIKYLPEWT [PSEN1_Y240_F237L]	0.611
KALKQYRAGPS [DDX27_Y763]	0.312
FASTGYGIAIQ [GRIN2B_Y762]	0.456
CSSGGYEPRGR [FUS_Y239_R234C]	0.439
RHPYFYAPELL [ALB_Y174]	0.762
LFEDRYLLGTS [ASS1_Y87_YF]	1.98
QTLTDYDIRFY [CSNK2A1_Y131]	0.72
SMEGLYSSTQD [CLIC5_Y111]	2.27

Biological target: FGFR1 (UniProt P11362)
Sequence (P11362 whole entry, looked up): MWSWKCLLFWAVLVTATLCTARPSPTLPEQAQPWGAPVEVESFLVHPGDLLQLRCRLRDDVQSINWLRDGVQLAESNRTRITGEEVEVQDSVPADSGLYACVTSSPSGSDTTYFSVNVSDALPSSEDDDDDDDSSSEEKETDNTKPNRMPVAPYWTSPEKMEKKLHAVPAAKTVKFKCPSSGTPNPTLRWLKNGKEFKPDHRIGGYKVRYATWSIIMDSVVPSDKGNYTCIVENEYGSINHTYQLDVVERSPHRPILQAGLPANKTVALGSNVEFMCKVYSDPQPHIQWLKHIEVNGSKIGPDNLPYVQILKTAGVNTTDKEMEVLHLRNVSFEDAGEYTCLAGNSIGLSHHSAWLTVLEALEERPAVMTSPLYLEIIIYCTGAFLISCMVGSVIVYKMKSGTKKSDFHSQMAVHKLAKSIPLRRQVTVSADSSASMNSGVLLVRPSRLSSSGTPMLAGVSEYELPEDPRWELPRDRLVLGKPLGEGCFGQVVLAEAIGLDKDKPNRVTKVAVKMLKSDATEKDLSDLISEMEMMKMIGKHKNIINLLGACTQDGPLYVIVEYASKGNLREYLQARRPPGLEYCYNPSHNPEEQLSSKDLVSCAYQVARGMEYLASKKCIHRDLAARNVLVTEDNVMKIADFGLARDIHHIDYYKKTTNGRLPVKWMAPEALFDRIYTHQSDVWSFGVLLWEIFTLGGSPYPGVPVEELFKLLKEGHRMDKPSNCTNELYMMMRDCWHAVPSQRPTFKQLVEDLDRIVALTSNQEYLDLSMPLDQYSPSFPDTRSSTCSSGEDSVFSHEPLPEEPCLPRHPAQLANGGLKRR
Assay: as above

Sequence	phosphorylation enrichment
LDLPGYCPLRE [CCDC116_Y291]	0.916
CDDGKYVFVVT [RPS6KA3_Y488_Y483C_YF]	0.574
RHFVFYFSFLL [PTEN_Y177_R173H_YF]	0.496
ATATDYHTTSH [SLC4A1_Y46]	0.408
SMAKYYASEIA [ACADSB_Y373]	0.426
SSSAIYDNPDL [DCP1B_Y191_N195D]	0.519
GARGRYIMGGP [TNK1_Y277_V278I]	0.789
VNQSGYTLIRK [ATP6V0A2_Y688_R685Q]	0.452
MPLDQYSPSFP [FGFR1_Y776]	0.631
EDSEYYKAFEE [CASQ2_Y179]	0.51
PSQRRYVFFFS [PTEN_Y174_YF]	0.731
HFNLTYRILSF [MMP23B_Y95]	0.486
LEIETCRRLLD [KRT12_Y429_Y429C]	0.722
HYEDGYPGGSD [CTNND1_Y221]	0.819
LLREWYLPDPF [SIX3_Y225_Q227P_YF]	1.25
QEGPEYWDGNT [HLA-B_Y83_R86G]	1.11
DLAGRYYALKS [CKB_Y173]	1.04

Sequence	phosphorylation enrichment
PFRFIYMAVQH [PTPN11_Y515_Q510P_YF]	0.463
KDAGDYKFKAK [LRIT3_Y326_C328Y_YF]	0.421
RGGWAYVLHPT [TRMT61A_Y67_V66A]	0.663
NFYEYYVDDPP [GCHFR_Y48]	5.94
LNWIFYKDQTG [RS1_Y166_YF]	0.27
SASQEYHIVKK [PDZD2_Y557]	0.905
CRIELYRIVES [IGFBP1_Y181_V183I]	0.422
THQNSYQPGRK [CEFIP_Y210]	0.479
LVLIKYLPEWT [PSEN1_Y240_F237L]	0.547
KALKQYRAGPS [DDX27_Y763]	0.355
FASTGYGIAIQ [GRIN2B_Y762]	0.557
CSSGGYEPRGR [FUS_Y239_R234C]	0.432
RHPYFYAPELL [ALB_Y174]	12.7
LFEDRYLLGTS [ASS1_Y87_YF]	1.26
QTLTDYDIRFY [CSNK2A1_Y131]	0.62
SMEGLYSSTQD [CLIC5_Y111]	0.698
